Data published in patent US20180155451A1 (published 2018).

T1: FcγRIIa H (human, UniProt P12318 34-217)
T1 construct: extracellular domain; also called FcgRIIa H type; 2aH; not shown: His tag at the C terminus
T1 sequence (looked up): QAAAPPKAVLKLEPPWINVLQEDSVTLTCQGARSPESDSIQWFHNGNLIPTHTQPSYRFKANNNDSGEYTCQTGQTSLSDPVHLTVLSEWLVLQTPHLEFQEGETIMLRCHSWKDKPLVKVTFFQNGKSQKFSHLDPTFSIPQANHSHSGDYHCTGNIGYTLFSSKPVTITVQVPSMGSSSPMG


Target: T1, FcγRIIa H
Assay: SPR Biacore, relative binding

| Binder | Ho/Con_2aH |
| --- | --- |
| GpH7-B3 variant K326_06M/GpL16-k0 (antibody, human IgG1, kappa, also called Ho Ab K326_06M) heavy: not shown light: DIVMTQSPLSLPVTPGEPASISCQASESLVHSNRNTYLHWYLQKPGQSPQLLIYKVSNRFSGVPDRFSGSGSGTDFTLKISRVEAEDVGVYYCSQNTHVPPTFGQGTKVEIERTVAAPSVFIFPPSDEQLKSGTASVVCLLNNFYPREAKVQWKVDNALQSGNSQESVTEQDSKDSTYSLSSTLTLSKADYEKHKVYACEVTHQGLSSPVTKSFNRGEC | 101 % of GpH7-B3/GpL16-k0 (=100) |
| GpH7-B3 variant Q295_07I/GpL16-k0 (antibody, human IgG1, kappa, also called Ho Ab Q295_07I) heavy: not shown light: DIVMTQSPLSLPVTPGEPASISCQASESLVHSNRNTYLHWYLQKPGQSPQLLIYKVSNRFSGVPDRFSGSGSGTDFTLKISRVEAEDVGVYYCSQNTHVPPTFGQGTKVEIERTVAAPSVFIFPPSDEQLKSGTASVVCLLNNFYPREAKVQWKVDNALQSGNSQESVTEQDSKDSTYSLSSTLTLSKADYEKHKVYACEVTHQGLSSPVTKSFNRGEC | 108 % of GpH7-B3/GpL16-k0 (=100) |
| GpH7-B3 variant L235_20W/GpL16-k0 (antibody, human IgG1, kappa, also called Ho Ab L235_20W) heavy: not shown light: DIVMTQSPLSLPVTPGEPASISCQASESLVHSNRNTYLHWYLQKPGQSPQLLIYKVSNRFSGVPDRFSGSGSGTDFTLKISRVEAEDVGVYYCSQNTHVPPTFGQGTKVEIERTVAAPSVFIFPPSDEQLKSGTASVVCLLNNFYPREAKVQWKVDNALQSGNSQESVTEQDSKDSTYSLSSTLTLSKADYEKHKVYACEVTHQGLSSPVTKSFNRGEC | 112 % of GpH7-B3/GpL16-k0 (=100) |
| GpH7-B3 variant Q295_05P/GpL16-k0 (antibody, human IgG1, kappa, also called Ho Ab Q295_05P) heavy: not shown light: DIVMTQSPLSLPVTPGEPASISCQASESLVHSNRNTYLHWYLQKPGQSPQLLIYKVSNRFSGVPDRFSGSGSGTDFTLKISRVEAEDVGVYYCSQNTHVPPTFGQGTKVEIERTVAAPSVFIFPPSDEQLKSGTASVVCLLNNFYPREAKVQWKVDNALQSGNSQESVTEQDSKDSTYSLSSTLTLSKADYEKHKVYACEVTHQGLSSPVTKSFNRGEC | 106 % of GpH7-B3/GpL16-k0 (=100) |
| GpH7-B3 variant L328_06M/GpL16-k0 (antibody, human IgG1, kappa, also called Ho Ab L328_06M) heavy: not shown light: DIVMTQSPLSLPVTPGEPASISCQASESLVHSNRNTYLHWYLQKPGQSPQLLIYKVSNRFSGVPDRFSGSGSGTDFTLKISRVEAEDVGVYYCSQNTHVPPTFGQGTKVEIERTVAAPSVFIFPPSDEQLKSGTASVVCLLNNFYPREAKVQWKVDNALQSGNSQESVTEQDSKDSTYSLSSTLTLSKADYEKHKVYACEVTHQGLSSPVTKSFNRGEC | 100 % of GpH7-B3/GpL16-k0 (=100) |
| GpH7-B3 variant K326_19Q/GpL16-k0 (antibody, human IgG1, kappa, also called Ho Ab K326_19Q) heavy: not shown light: DIVMTQSPLSLPVTPGEPASISCQASESLVHSNRNTYLHWYLQKPGQSPQLLIYKVSNRFSGVPDRFSGSGSGTDFTLKISRVEAEDVGVYYCSQNTHVPPTFGQGTKVEIERTVAAPSVFIFPPSDEQLKSGTASVVCLLNNFYPREAKVQWKVDNALQSGNSQESVTEQDSKDSTYSLSSTLTLSKADYEKHKVYACEVTHQGLSSPVTKSFNRGEC | 100 % of GpH7-B3/GpL16-k0 (=100) |
| GpH7-B3 variant L328_02A/GpL16-k0 (antibody, human IgG1, kappa, also called Ho Ab L328_02A) heavy: not shown light: DIVMTQSPLSLPVTPGEPASISCQASESLVHSNRNTYLHWYLQKPGQSPQLLIYKVSNRFSGVPDRFSGSGSGTDFTLKISRVEAEDVGVYYCSQNTHVPPTFGQGTKVEIERTVAAPSVFIFPPSDEQLKSGTASVVCLLNNFYPREAKVQWKVDNALQSGNSQESVTEQDSKDSTYSLSSTLTLSKADYEKHKVYACEVTHQGLSSPVTKSFNRGEC | 134 % of GpH7-B3/GpL16-k0 (=100) |
| GpH7-B3 variant P271_01G/GpL16-k0 (antibody, human IgG1, kappa, also called Ho Ab P271_01G) heavy: not shown light: DIVMTQSPLSLPVTPGEPASISCQASESLVHSNRNTYLHWYLQKPGQSPQLLIYKVSNRFSGVPDRFSGSGSGTDFTLKISRVEAEDVGVYYCSQNTHVPPTFGQGTKVEIERTVAAPSVFIFPPSDEQLKSGTASVVCLLNNFYPREAKVQWKVDNALQSGNSQESVTEQDSKDSTYSLSSTLTLSKADYEKHKVYACEVTHQGLSSPVTKSFNRGEC | 110 % of GpH7-B3/GpL16-k0 (=100) |
| GpH7-B3 variant K334_14T/GpL16-k0 (antibody, human IgG1, kappa, also called Ho Ab K334_14T) heavy: not shown light: DIVMTQSPLSLPVTPGEPASISCQASESLVHSNRNTYLHWYLQKPGQSPQLLIYKVSNRFSGVPDRFSGSGSGTDFTLKISRVEAEDVGVYYCSQNTHVPPTFGQGTKVEIERTVAAPSVFIFPPSDEQLKSGTASVVCLLNNFYPREAKVQWKVDNALQSGNSQESVTEQDSKDSTYSLSSTLTLSKADYEKHKVYACEVTHQGLSSPVTKSFNRGEC | 105 % of GpH7-B3/GpL16-k0 (=100) |
| GpH7-B3 variant K326_10E/GpL16-k0 (antibody, human IgG1, kappa, also called Ho Ab K326_10E) heavy: not shown light: DIVMTQSPLSLPVTPGEPASISCQASESLVHSNRNTYLHWYLQKPGQSPQLLIYKVSNRFSGVPDRFSGSGSGTDFTLKISRVEAEDVGVYYCSQNTHVPPTFGQGTKVEIERTVAAPSVFIFPPSDEQLKSGTASVVCLLNNFYPREAKVQWKVDNALQSGNSQESVTEQDSKDSTYSLSSTLTLSKADYEKHKVYACEVTHQGLSSPVTKSFNRGEC | 101 % of GpH7-B3/GpL16-k0 (=100) |
| GpH7-B3 variant S267_02A/GpL16-k0 (antibody, human IgG1, kappa, also called Ho Ab S267_02A) heavy: not shown light: DIVMTQSPLSLPVTPGEPASISCQASESLVHSNRNTYLHWYLQKPGQSPQLLIYKVSNRFSGVPDRFSGSGSGTDFTLKISRVEAEDVGVYYCSQNTHVPPTFGQGTKVEIERTVAAPSVFIFPPSDEQLKSGTASVVCLLNNFYPREAKVQWKVDNALQSGNSQESVTEQDSKDSTYSLSSTLTLSKADYEKHKVYACEVTHQGLSSPVTKSFNRGEC | 120 % of GpH7-B3/GpL16-k0 (=100) |
